Reference: the supplement of paper PMC9170038

System: MS2 coat protein
Assay: apparent KD of MS2 coat protein; higher = weaker reporter binding
Settings: Eterna round: R107
How it was run: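 The buffer was 100 mM Tris-HCl pH 7.5 with 80 mM KCl and 4 mM MgCl2, used without or with constant ligand. In it, RNA switches transcribed on-chip from Illumina sequencing clusters were titrated with SNAP-549-labelled MS2 coat protein in twofold steps from 0.7 or 1.5 nM to 3 µM. Apparent KD for each design is the median of its normalised cluster binding-curve fits.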

[1] = input ligand: theophylline 20 uM
[2] = input ligand: theophylline 2 mM
[3] = input ligand: tryptophan 2.4 mM

Row | Sequence | apparent KD of MS2 coat protein (input ligand: arginine 13.2 mM) [nM] | apparent KD of MS2 coat protein (input ligand: none) [nM] | apparent KD of MS2 coat protein [1] [nM] | apparent KD of MS2 coat protein [2] [nM] | apparent KD of MS2 coat protein [3] [nM]
1 | AACAUGAGGAUCACCCAUGUCGGGCCGGUGCGAGGACCGGUACGGCCGCCACUCGAGACAUGAGGAUCACCCAUGUUGUGCGUGA [Exclusion Tryptophan A GF23] | 52.6 | 162 | 195 | 221 | 138
2 | UACAUAUGCCGAAGGAGCGCGAGAAGCAAAGCUUCAUUCCUCACAUGAGGAUCACCCAUGUCGCAGGUAGGUCGCGGCAUAUGUU [#15 Exclusion - Arginine B] | 23.7 | 21.8 | 42 | 28.2 | 24
3 | ACAUGAGGAUCACCCAUGUACAUGAGGGAAGGAGCGGUACAUGUACCAGGUAGGUCGCCCAACAGCAUCAGCCAUGUACAUCAGC [ggvmullin] | 31.4 | 76.1 | 102 | 90.4 | 69
4 | GUAUACAUGAGGAUCACCCAUGUACCAGAAGGAGCGCUGGAAACAGCAGGUAGGUCGCUGGUAGGUCCUCUAUCUAGACGUUCGG [EAA NP+V+V2 #4] | 49.9 | 168 | 191 | 201 | 139
5 | AAUAAAUCACAUGAGGAUCACCCAUGUGAUACCAGCCUGGAAACAGGCCCUUGGCAGCACAUGAGGAUCACCCAUGUGCUAAAUA [TheoAX 1 #DoubleMS2 #OpenEnded] | 6.79 |  | 8.81 |  | 8.43
6 | AUUUAUUAGACGGCCGCCACUUGAAAGCGACCUCAUAAAUGGGAACAUGAGGAUCACCCAUGUAAGAGGACCGGGUCUAGUAGAU [TryptB-ms2@45] | 132 |  | 150 | 318 | 
7 | GGCACAUGUGGAAGGAGCGUCGUACGAGCUACAUGAGGAUCACCCAUGUCGGUUAGUGUCCGACAGGUAGGUCGCCACAUUUAAC [Isiser] | 114 | 374 | 235 | 551 | 195
8 | GAUUACAUGAGGAUCACCCAUGUAACUGAAGGAGCGGUAAUAAAGCCAGGUAGGUCGCGGAACAACAUGUGGAUCACCCAUGUAA [#13 Exclusion - Arginine A] | 33.7 | 43.5 | 51.6 | 43.7 | 32.7
9 | AGUGUAUCCAUCGAUACCAGCCACCACCGAUAGACCACAUGAGGAUCACCCAUGUUGGGUGGCCCUUGGCAGCGGUGGCUGUGUA [Same State - Theophylline B Attempt #2 (HarryS)] | 57.5 |  | 512 |  | 546
10 | GAACAUAAGGAUAGUAUAAUGACUACAGAAGGAGCGUCAGGAAGGACAGGUAGGUCGCUGGAAGACAUGAGGAUCACCCAUGUUU [Arg A SS t2] | 25.6 | 22.8 | 35.3 | 24.5 | 19.4
11 | AUUAAGGAUAUAUAGAAGGCGGAGAAGAGACGAGGACCGGUACGGCCGCCACUCGUGUUAGUUAACAUGAGGAUCACCCAUGUAA [Turkey 2] | 41.3 |  | 76.9 | 102 | 
12 | ACUUCAUGAGGUGAUACCAGCCAAUGACAUGAGGACAUGAGGAUCACCCAUGUUUAUGUAGGCCCUUGGCAGCAUUGUAACAUGA [Same State Theophylline B 4] | 101 |  | 126 |  | 28.4
13 | AGCGACAUGCAUGAUACCAGCUACAUGAGGAUCACCCAUGUACGUCAGUAAUGACUGUGUAGCCCUUGGCAGCAUAGAGCAUGUA [Exclusion - Theophylline B (Freestyle 14)] | 17.7 |  | 28 |  | 18.4
14 | ACAUUUAACUGAAGGAGCGUGAUUAACAUGAGGAUCACCCAUGUAACUUAGAUGCUUAUAUCACAGGUAGGUCGCAGACUAAUGA [JR_ExcArginiB_Sub011] | 13.9 | 13.6 | 18.3 | 14.9 | 15.5
15 | AUAAAUAAUAAAUAAAAUAAAGUGGGUGAACGAGGACCGGUACGGCCGCCACUCGGACAUGAGGAUCACCCAUGUCCAUGUGAAA [AstrosExyTry#1] | 13.1 |  | 22.4 | 19.2 | 
16 | AUAACAUGAGGAUCACCCAUGUAAGGUGAUACCAGACGAAGUAAAGUCCCUUGGCAGCACAAGCAUAGUUGCGAAUAUUGAUAGA [JR_SSTheophyA_Sub005] | 264 |  | 532 |  | 632
17 | GCACCAGGUACGGAUACCAGAGCAAGCCAAAUGAGUGAACUUGAGGAUCACCCAAGUUUGCUCCCUUGGCAGCCGUACCUGGUGC [ETB NP+V+V2 #12 Diff Apt, +-Same Structure] | 7.29 | 9.39 | 11.4 | 29.2 | 8.49
18 | AACAUGAGGAUCACCCAUGUAUUGGGUGAUACCAGCCUGAAUAAUGGCCCUUGGCAGCACCACGCUAACUUUAUGUCUGCGAACC [Maus] | 39.3 |  | 263 |  | 83.6
19 | AGUAAUAAUAUAAAUAAUAUUAGGUCAUGGCGAGGACCGGUACGGCCGCCACUCGGUUACAUGAGGAUCACCCAUGUCCCGCUUA [Exclusion - Tryptophan A] | 26.6 |  | 35 | 31.2 | 

Row | Sequence | apparent KD of MS2 coat protein (input ligand: arginine 13.2 mM) [nM] | apparent KD of MS2 coat protein (input ligand: none) [nM] | apparent KD of MS2 coat protein [1] [nM] | apparent KD of MS2 coat protein [2] [nM] | apparent KD of MS2 coat protein [3] [nM]
20 | ACACAUGACGCGGCCGCCACUGCAACAUGAGGAUCACCCAUGUCACCCAUGUAUGACAUGAGGAUCAGGACCGGGCGUGUGUGGA [Same State Tryptophan B 3] | 615 | 566 | 491 | 580 | 195
21 | CGAGUCCGCUGAUGGGCUAAGUCAGGUGAUACCAGCCACUCCCGCGGCCCUUGGCAGCACAUGAGGAUCACCCAUGUAGGGCUUG [Iserbele] | 19.2 |  | 51.1 |  | 23.1
22 | GACAUGAGGAUCACCCAUGUUUGCUAUGAAGGAGCGUCGGAAAUGACAGGUAGGUCGCAUAGUAGGCCUUGUAUUUUGUGUGUUU [EAA #8] | 11.4 | 10.1 | 14.4 | 10.8 | 10.5
23 | UUAUAAGUACCGGUCCUCAGAUCCUCAUGACGAGGACCGGUACGGCCGCCACUCGAAACAUGAGGAUCACCCAUGUAAUAACAUC [Brourdmod21] | 19 |  | 27.5 | 25.9 | 
24 | GCCCUUGGCAGCGAUACCAGCCAAAAUUAAAAUAAACCUCUACAUGAGGAUCACCCAUGUGGCCCUUGGCAGCGAUACCAGCAAA [#ReversedDoubbleAptamer 1] | 33.7 |  | 49.7 |  | 43.5
25 | AGUCUUGAACGAAGGAGCGACGUACAUGAGGAUCACCCAUGUGUGGAGCGAAAGCUCCAACGUCAGGUAGGUCGCGUUCGAGACA [Omei Arginine B SS A v2] | 14.9 | 12.8 | 18 | 14.9 | 13.9
26 | AAUACCGGAUCGGCCGCCACUGGUUGGCCCUGUGUACAUGAGGAUCACCCAUGUCCAUCCCAAACCAGGACCGGGAUCUUUGUGC [Ededmate] | 11.7 |  | 15.8 | 13.7 | 
27 | GAUAUAUAACGAAGGAGCGGCCCUUGAUCCUCAUGAGACAUGAGGAUCACCCAUGUCUCGGGCCAGGUAGGUCGCGUUAUAUAUC [Astros-omei-mod] | 26.6 | 21.5 | 31.4 | 27.9 | 24.4
28 | UUUUCAGGGUCGGCCGCCACUGGUAUGGCGAGUCCUCGAACAAACAUGAGGAUCACCCAUGUGAACAGGACCGGGACAGCAUGGG [Exclusion Tryptophan B GF 21] | 97.2 | 380 | 538 | 645 | 286
29 | AGUGGUGCAACUGAUACCAGAUUUAUACGAGACAUGAGGAUCACCCAUGUCGAAAGACAAAUCCCUUGGCAGCAGACACGAUCCC [theeternabot_sameState_MS2_Theo_B_25] | 9.88 |  | 10.4 |  | 9.65
30 | AAUUAUUUCUCAAUUAUUUAAUCUUCAGAAGGAGCGUGAUGAUUCACAGGUAGGUCGCUGAUGACAUGAGGAUCACCCAUGUAUU [JR_SSArginiA_Sub003] | 30.6 | 30.1 | 31.1 | 29.1 | 27.5
31 | AUUAAAAGUUGUGAUACCAGACGAACAUGAGGAUCACCCAUGUAACUUUUAGGUGUUGUAGUCCCUUGGCAGCACUAUGUAGUUA [JR_SSTheophyB_Sub012] | 31.3 |  | 49.2 |  | 40.1
32 | UUUACAUGAGGAUCACCCAUGUGCCAUGAUACCAGACAUGAAAAUGUCCCUUGGCAGCAUGAGUGAAGCGUCGGGAAACCGACGC [Kninicky] | 57.1 | 249 | 229 | 297 | 261
33 | UAUCGUCAGACGGCCGCCACUAGAACAUGAGGAUCACCCAUGUACCCGGUCCAUUCCUCAUUAACUAGGACCGGGUCUGACGAAU [(Trp1)-(Ms2)-(T)'-(M)'-(Trp2)_Design13] | 88.3 |  | 129 | 131 | 
34 | GGGAAUGAACGUGAUACCAGAGAUCCGGUCUCCGUCAAUAUACAUGAGGAUCACCCAUGUCUCCCUUGGCAGCACCGUCAUCGGG [Exclusion Theophylline B GF 28] | 14.3 |  | 20.4 |  | 14.5
35 | ACAUUGCGCUCGGCCGCCACUGGCUAUAGAUUUAUAGCAUUAAUGAACAUGAGGAUCACCCAUGUCAGGACCGGGAGCGAACCAU [SSTryp B #8] | 12.1 |  | 17.2 | 13.2 | 
36 | GCAUCCUAGUCGGCCGCCACUGCAAUUGUAAUACUGCUACAUGAGGAUCACCCAUGUCCAUGUAGCAGGACCGGGACUAGGAUGC [SS Tryp B #16] | 142 |  | 728 | 1240 | 
37 | AUCGUACCUGGUGAUACCAGCAAUUGCUCGUGACAUGAGGAUCACCCAUGUGACCAGUGAUGCCCUUGGCAGCAUGGUCGGUGCA [Same State - Theophylline B (Freestyle 23)] | 36.8 |  | 65.3 |  | 61.2
38 | AGCCUCAUACAUGAGGAACACCCAUGUGAUACCAGUCAGGAAACUGACCCUUGGCAGCGCAUGAGGAUCACCCAUGCGCGAGGCA [Omei Theo A Exc A v3] | 20.4 | 63 | 78.2 | 237 | 47.7
